Test results as given in the supplement of paper PMC9170038.

System: MS2 coat protein
Assay: apparent KD of MS2 coat protein; higher = weaker reporter binding
Conditions: Eterna round: R107
In short: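 Apparent KD is reported per design as the median of normalised binding-curve fits across its clusters. The RNA switches were made by on-chip transcription from Illumina sequencing clusters. SNAP-549-labelled MS2 coat protein was then added in twofold steps (0.7 or 1.5 nM to 3 µM; 0.8–1.5 h to 10–20 min per step) in 100 mM Tris-HCl pH 7.5, 80 mM KCl, 4 mM MgCl2, without or with constant ligand.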

[1] = input ligand: theophylline 20 uM
[2] = input ligand: tryptophan 2.4 mM
[3] = input ligand: theophylline 2 mM

Sequence | apparent KD of MS2 coat protein (input ligand: arginine 13.2 mM) [nM] | apparent KD of MS2 coat protein [1] [nM] | apparent KD of MS2 coat protein [2] [nM] | apparent KD of MS2 coat protein (input ligand: none) [nM] | apparent KD of MS2 coat protein [3] [nM]
AGAAUACAUGUUUUAAUACGGAAAACUGAUACCAGUGUAUCUAUUCACCCUUGGCAGCAGAGACAUGAGGAUCACCCAUGUAUUA [JR_Nu_SSTheophyA_Sub019] | 28.1 | 41.2 | 46.6 | – | –
GAGUUCCUGAGAGAUACCAGUGAAGCCACAUGAGGAUCACCCAUGUCCCUCACUCCGGCCCACCCUUGGCAGCUCGAAAGAUGGA [Exclusion Theophylline B GF 21] | 83.7 | 132 | 141 | 105 | 403
CAGAACAUGAGGAUCACCCAUGUAAACGACCGAGGACCGGUACGGCCGCCACUCGAUAUGUCUUGAGGGAGAUAUGGAUUCACAU [theeternabot_sameState_MS2_Trp_A_46] | 23 | 51.4 | – | – | 44.4
ACAUGAGGAUCACCCAUGUGUGUAAAUCCUCGAGGACCGGUACGGCCGCCACUCGAACGAGUGUAAGAUGAAUGUUACAUUCAUC [SS Trp A s2] | 70.8 | 134 | – | – | 116
ACGACGCAUAGUGAUACCAGCACAACAUGAGGAUCACCCAUGUCACUUAUGUAGUAAUAAUGCCCUUGGCAGCACUAUGCGUCAG [SSTheo B #1] | 40.7 | 66.3 | 52.6 | – | –
AUGCCUAGUGGAAGGAGCGAGGGUCUUCUCAACAUGAGGAUCACCCAUGUUCUUUUACACCCUCAGGUAGGUCGCCAUUGGGACA [Biraanve] | 25.1 | 85.2 | 61.2 | 55 | 44.6
GGGCAAGAGGGAAGGAGCGUCAGCUGAGUAACAUGAGGAUCACCCAUGUAGCACAUAGUGUGACAGGUAGGUCGCCCUCUGCCCU [SS-ArgB6] | 12.6 | 10.4 | 12.5 | 8.97 | 8.42
CUCCCGUGGUCGGCCGCCACUGGAGGCCUUGCGCGACAUGAGGAUCACCCAUGUGGGCCCGGCGUCAGGACCGGGAUCGCGUGAG [#1 Same State - Tryptophan B Attempt #11 (HarryS)] | 11.5 | 20.2 | 15.6 | 16.1 | 16.2
GCUACAUGAGGAUCACCCAUGUAUGCGAGCCGAGGACCGGUACGGCCGCCACUCGCUUAACAUGAGGAUCACCCAUGUUUCUCGG [SSTA DOUBLE!!! :-D #16] | 69.9 | 193 | – | – | 254
AAACGUUGCUGCGAUACCAGACAUGAGGAUCACCCAUGUACCAAGGUACGAAUAUAACAUGUCCCUUGGCAGCGCAGCAACGAAA [MAT - Exclusion Theophlline B - Mod of Eli - D7] | 17.5 | 22.7 | 13.6 | – | –
CCGUUAAAAUUCCAUUAUACAAUACCUGAAGGAGCGUAGGAAACUACAGGUAGGUCGCAGAUACAUGAGGAUCACCCAUGUACGG [SSAA #13] | 14.6 | 20.3 | 17.3 | 16.2 | 22.5
UUCGCUGAGGGAAGGAGCGUGAAGACAUGAGGAUCACCCAUGUAGAGGCGCCGAAGGCGUUCGCAGGUAGGUCGCCCUCAGUGAG [#1 Same State - Arginine B Attempt #23 (HarryS)] | 17.1 | 24.7 | 17.3 | 16.4 | 17.7
ACCUGCGUUUGAUUCUAUCUGACGCAGGUUCGAGGACCGGUACGGCCGCCACUCGGACAUGAGGAUCACCCAUGUUUGACAUGGG [#03 Exclusion Tryptophan A] | 27.8 | 608 | 92.7 | 121 | 186
UCGGGCAGAGCGGCCGCCACUGUAAGGCGUGCGGAUGACGGAACAUGAGGAUCACCCAUGUUGUUUAGGACCGGGCUUGCGGCGA [nynullin] | 22.5 | 27.2 | 16.7 | 15.8 | 11.2
ACGGAUCGGAAACGAUCCGCGGCGAGGGUGCGAGGACCGGUACGGCCGCCACUCGGCUAACAUGAGGAUCACCCAUGUCCGAAGA [ETA NuPACK+Vienna+Vienna2 #9] | 43.6 | 137 | 172 | 126 | 117
ACGUGGAAAAUUUGUGGUGCUGCCUCAGGCCGAGGACCGGUACGGCCGCCACUCGUACAUGAGGAUCACCCAUGUCGAGUCACUG [Isanso] | 19.2 | 48 | – | – | 47.4
AUAUUUAACGGAAGGAGCGCGGAAUAAUAAGUGGGUAAACAUGAGGAUCACCCAUGUAAACCGCAGGUAGGUCGCCGAAUAAUAA [AstrosEXyARgB#4] | 71 | 115 | 68.4 | 89.4 | 86.1
ACUAGGCUCGGAAACGAGCCUAGGACAGAAGGAGCGUGGAUUAACACAGGUAGGUCGCUGACAUGAGGAUCACCCAUGUAUUAUU [SSAA #2] | 24.5 | 38.6 | 28.9 | 24.9 | 25.3
